Assay results taken from PMC3348139.
One block for each substance: values may come before it.

What was measured:
[1] = target: A230V human cardiac actin (A230V ACTC) (human); assay: pyrene-actin polymerisation assay (critical concentration); actin in G-buffer mixed with 2.5% pyrene-labeled alpha-skeletal actin; polymerization buffer 25 mM Tris pH 8.0, 50 mM KCl, 1 mM EGTA, 2 mM MgCl2, 0.1 mM ATP; Cc is the x-intercept of the change in pyrene fluorescence against actin concentration; monomer to filament
DNase-I = DNase-I (UniProt P00639)
[2] = target: R312H human cardiac actin (R312H ACTC) (human); assay: pyrene-actin polymerisation assay (critical concentration); actin in G-buffer mixed with 2.5% pyrene-labeled alpha-skeletal actin; polymerization buffer 25 mM Tris pH 8.0, 50 mM KCl, 1 mM EGTA, 2 mM MgCl2, 0.1 mM ATP; Cc is the x-intercept of the change in pyrene fluorescence against actin concentration; monomer to filament
[3] = target: Y166C human cardiac actin (Y166C ACTC) (human); assay: as above
[4] = target: E99K human cardiac actin (E99K ACTC) (human); assay: as above
[5] = target: M305L human cardiac actin (M305L ACTC) (human); assay: as above
[6] = target: E361G human cardiac actin (E361G ACTC) (human); assay: as above
[7] = target: wildtype human cardiac actin (WT ACTC) (human) (UniProt P68032); assay: as above
[8] = target: A331P human cardiac actin (A331P ACTC) (human); assay: as above

Sequence of DNase-I (P00639 23-282): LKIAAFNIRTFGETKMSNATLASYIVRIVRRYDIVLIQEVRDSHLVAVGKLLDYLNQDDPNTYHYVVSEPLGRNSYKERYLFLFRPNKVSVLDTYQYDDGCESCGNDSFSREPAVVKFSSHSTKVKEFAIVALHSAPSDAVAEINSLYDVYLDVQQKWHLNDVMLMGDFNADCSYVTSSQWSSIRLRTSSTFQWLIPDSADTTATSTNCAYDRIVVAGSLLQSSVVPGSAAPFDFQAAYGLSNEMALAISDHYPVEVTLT

Cc (critical concentration of polymerisation) [1]: 2.11 µM
IC50 of inhibition of DNase-I activity (A260 with salmon sperm DNA; 0 to 100 nM ACTC, 15.4 nM DNase-I) (DNase-I): 15.3 nM
Substance: A230V human cardiac actin (A230V ACTC) (natural protein)

Cc (critical concentration of polymerisation) [6]: 0.58 µM
IC50 of inhibition of DNase-I activity (A260 with salmon sperm DNA; 0 to 100 nM ACTC, 15.4 nM DNase-I) (DNase-I): 16.8 nM
Substance: E361G human cardiac actin (E361G ACTC) (natural protein)

Cc (critical concentration of polymerisation) [7]: 0.28 µM
IC50 of inhibition of DNase-I activity (A260 with salmon sperm DNA; 0 to 100 nM ACTC, 15.4 nM DNase-I) (DNase-I): 13.2 nM
Substance: wildtype human cardiac actin (WT ACTC) (from UniProt P68032 1-377) (natural protein)

Cc (critical concentration of polymerisation) [8]: 2.95 µM
IC50 of inhibition of DNase-I activity (A260 with salmon sperm DNA; 0 to 100 nM ACTC, 15.4 nM DNase-I) (DNase-I): 26 nM
Substance: A331P human cardiac actin (A331P ACTC) (natural protein)

More lines, now with the values behind:

Substance: R312H human cardiac actin (R312H ACTC) (natural protein)
Cc (critical concentration of polymerisation) [2]: 4.75 µM
IC50 of inhibition of DNase-I activity (A260 with salmon sperm DNA; 0 to 100 nM ACTC, 15.4 nM DNase-I); the value rose on later days after purification (DNase-I): 36.7 nM

Substance: Y166C human cardiac actin (Y166C ACTC) (natural protein)
Cc (critical concentration of polymerisation) [3]: 2.67 µM
IC50 of inhibition of DNase-I activity (A260 with salmon sperm DNA; 0 to 100 nM ACTC, 15.4 nM DNase-I) (DNase-I): 24.6 nM

Substance: E99K human cardiac actin (E99K ACTC) (natural protein)
Cc (critical concentration of polymerisation) [4]: 1.67 µM
IC50 of inhibition of DNase-I activity (A260 with salmon sperm DNA; 0 to 100 nM ACTC, 15.4 nM DNase-I) (DNase-I): 25.7 nM

Substance: M305L human cardiac actin (M305L ACTC) (natural protein)
Cc (critical concentration of polymerisation) [5]: 2.21 µM
IC50 of inhibition of DNase-I activity (A260 with salmon sperm DNA; 0 to 100 nM ACTC, 15.4 nM DNase-I) (DNase-I): 17 nM
